The supplement of paper PMC7877785
± gives the uncertainty stated by the source.

Test: self-splicing fitness, log relative to wild type (ln ratio); higher = more splicing; Tetrahymena group I intron in knt gene, E. coli kanamycin selection, DiMSum; sequences stand for … in CUCUCU…GGAGGGAAAAGUUAUCAGGCAUGCACCUGGUAGCUAGUCUUUAAACCAAUAGAUUGCAUCGGUUUAAAAGGCAAGACCGUCAAAUUGCGGGAAAGGGGUCAACAGCCGUUCAGUACCAAGUCUCAGGGGAAACUUUGAGAUGGCCUUGCAAAGGGUAUGGUAAUAAGCUGACGGACAUGGUCCUAACCACGCAGCCAAGUCCUAAGUCAACAGAUCUUCUGUUGAUAUGGAUGCAGUUCACAGACUAAAUGUCGGUCGGGGAAGAUGUAUUCUUCUCAUAAGAUAUAGUCGGACCUCUCCUUAAUGGGAGCUAGCGGAUGAAGUGAUGCAACACUGGAGCCGCUGGGAACUAAUUUGUAUGCGAAAGUAUAUUGAUUAGUUUUGGAGUACUCGUGGUCG
Summary of the method: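 Library with all eight P1ex-region intron nucleotides randomised, intron inside the knt kanamycin-resistance gene on pET-22b(+), in E. coli BL21(DE3). Cells grew overnight at 37°C or 30°C on LB agar with or without 25 μg/mL kanamycin (plus 100 μg/mL carbenicillin, 50 μM IPTG, 0.2% rhamnose), in six replicate transformations. Pooled colonies were amplicon-sequenced on Illumina HiSeq 2500. DiMSum fitness is the error-weighted combination of wild-type-normalised replicate fold changes, kanamycin versus none.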

Sequence | self-splicing fitness (ln) (30 °C) | self-splicing fitness (ln) (37 °C)
UCGCAGCAAUAUUACGUAGU | -2.58 ± 0.13 | -2.85 ± 0.26
CUACAGCAAUAUUACGACGC | -3.16 ± 0.34 | -2.08 ± 0.27
GCUUAGCAAUAUUACGAGUA | -1.37 ± 0.16 | -0.0404 ± 0.14
GUUCAGCAAUAUUACGAGAG | -0.895 ± 0.12 | -0.725 ± 0.12
GAUAAGCAAUAUUACGAAGC | -2.17 ± 0.28 | -0.18 ± 0.21
AUUUAGCAAUAUUACGUUGC | -3.26 ± 0.41 | –
UAUUAGCAAUAUUACGAGGA | -2.33 ± 0.19 | -1.54 ± 0.18
CGGUAGCAAUAUUACGGAAC | – | -2.37 ± 0.36
GGGCAGCAAUAUUACGCCUA | -0.197 ± 0.12 | 0.428 ± 0.14
GGAGAGCAAUAUUACGACAU | -2.642 ± 0.022 | -1.55 ± 0.037
GUUGAGCAAUAUUACGCGUA | -3.48 ± 0.47 | -0.589 ± 0.18
CUAGAGCAAUAUUACGUCAG | -0.419 ± 0.08 | -0.271 ± 0.11
GACCAGCAAUAUUACGAUGA | -0.717 ± 0.071 | -0.509 ± 0.085
UCACAGCAAUAUUACGCUAA | -2.39 ± 0.12 | -2.27 ± 0.18
GCACAGCAAUAUUACGUUUU | -1.14 ± 0.046 | -0.268 ± 0.065
UCUUAGCAAUAUUACGUAUU | -3.1 ± 0.28 | -3.54 ± 0.39
AUUUAGCAAUAUUACGAGCU | -1.88 ± 0.17 | -0.00846 ± 0.15
CUAAAGCAAUAUUACGUCAC | -2.66 ± 0.14 | -2.62 ± 0.22
CCUUAGCAAUAUUACGGCUU | -3.99 ± 0.37 | -1.99 ± 0.2
AAACAGCAAUAUUACGCUCG | -1.11 ± 0.083 | -0.7 ± 0.11
GUCCAGCAAUAUUACGCCGA | -1.78 ± 0.22 | -2.03 ± 0.14
UUAAAGCAAUAUUACGGGAC | -3.27 ± 0.24 | -2.24 ± 0.28
UGGCAGCAAUAUUACGAAUC | -2.3 ± 0.25 | –
GGAAAGCAAUAUUACGUCGG | -3.51 ± 0.36 | –
UGACAGCAAUAUUACGCCGC | -1.26 ± 0.32 | –
UAAGAGCAAUAUUACGUACU | -2.79 ± 0.25 | -0.993 ± 0.2
GACAAGCAAUAUUACGCCUA | -0.964 ± 0.093 | -0.0625 ± 0.088

Sequence | self-splicing fitness (ln) (30 °C) | self-splicing fitness (ln) (37 °C)
CGGAAGCAAUAUUACGGUUU | -4.42 ± 0.36 | -3.88 ± 0.31
UUAUAGCAAUAUUACGCCUG | -0.833 ± 0.4 | -0.933 ± 0.37
GAUGAGCAAUAUUACGGUGC | – | -1.53 ± 0.28
CCCAAGCAAUAUUACGCACC | – | -2.31 ± 0.33
GCAGAGCAAUAUUACGCUAG | -1.83 ± 0.44 | -1.79 ± 0.2
UAACAGCAAUAUUACGGGAG | -2.3 ± 0.1 | -1.62 ± 0.096
GUGAAGCAAUAUUACGCGCC | -4.14 ± 0.33 | -2.69 ± 0.41
ACCAAGCAAUAUUACGUACA | -1.46 ± 0.079 | -1.05 ± 0.085
GGUGAGCAAUAUUACGUGUG | -3.28 ± 0.2 | -2.47 ± 0.2
GCGCAGCAAUAUUACGCAAU | -1.56 ± 0.09 | -0.27 ± 0.1
GAUAAGCAAUAUUACGUACA | -0.491 ± 0.15 | -0.262 ± 0.16
CCGUAGCAAUAUUACGAAUA | -2.99 ± 0.28 | –
UGUUAGCAAUAUUACGUUCG | 0.135 ± 0.16 | 0.292 ± 0.16
CAGCAGCAAUAUUACGGUUG | -3.04 ± 0.11 | -2.62 ± 0.23
GUAGAGCAAUAUUACGCUUA | -0.468 ± 0.087 | -0.371 ± 0.1
ACCCAGCAAUAUUACGCUCU | -0.186 ± 0.058 | 0.107 ± 0.067
GUUAAGCAAUAUUACGCCGA | -1.83 ± 0.19 | -0.947 ± 0.18
UCCAAGCAAUAUUACGAACC | -1.65 ± 0.25 | –
GCGCAGCAAUAUUACGUCUA | -0.763 ± 0.07 | -0.321 ± 0.079
GCUGAGCAAUAUUACGUCAA | -3.38 ± 0.47 | –
GUCGAGCAAUAUUACGCAAG | -3.6 ± 0.27 | -2.71 ± 0.3
GUCGAGCAAUAUUACGUAAA | -2.73 ± 0.29 | -0.959 ± 0.27
UACGAGCAAUAUUACGCGCG | -1.35 ± 0.13 | -1.14 ± 0.18
AUAGAGCAAUAUUACGGCGC | -1.36 ± 0.096 | -0.282 ± 0.14
UUACAGCAAUAUUACGCGUC | -3.64 ± 0.2 | -1.32 ± 0.19
AUAAAGCAAUAUUACGCGUA | -0.873 ± 0.079 | -0.0465 ± 0.091
AAAAAGCAAUAUUACGAUUA | -0.462 ± 0.067 | 0.23 ± 0.081

Sequence | self-splicing fitness (ln) (30 °C) | self-splicing fitness (ln) (37 °C)
ACAGAGCAAUAUUACGCGUG | -1.81 ± 0.081 | -1.87 ± 0.1
UUGAAGCAAUAUUACGAGGG | -1.6 ± 0.17 | -1.37 ± 0.24
GGAGAGCAAUAUUACGCCCU | -2.57 ± 0.42 | –
AUGUAGCAAUAUUACGUAUA | -1.99 ± 0.2 | -1.58 ± 0.21
UCGAAGCAAUAUUACGACAG | -3.08 ± 0.23 | -1.87 ± 0.31
UGGAAGCAAUAUUACGUGCC | -2.57 ± 0.27 | -0.372 ± 0.34
UACAAGCAAUAUUACGCAAA | -2.24 ± 0.14 | -1.51 ± 0.14
UCCUAGCAAUAUUACGCAAU | -2.64 ± 0.21 | -2.05 ± 0.25
CGAUAGCAAUAUUACGAGAA | -2.67 ± 0.36 | -2.73 ± 0.47
ACACAGCAAUAUUACGUCAC | -3.22 ± 0.16 | -2.86 ± 0.27
CCAUAGCAAUAUUACGCUAG | -3.8 ± 0.47 | -1.82 ± 0.23
GACAAGCAAUAUUACGUGUU | -3.4 ± 0.12 | -2.21 ± 0.12
CACAAGCAAUAUUACGGCAG | -0.587 ± 0.051 | -0.0731 ± 0.064
ACCUAGCAAUAUUACGUUCG | -1.5 ± 0.078 | -0.444 ± 0.096
UGUUAGCAAUAUUACGGGGA | -2.84 ± 0.22 | -2.2 ± 0.19
UAACAGCAAUAUUACGUGGU | -2.87 ± 0.12 | -2.93 ± 0.2
UACUAGCAAUAUUACGCAAA | -2.94 ± 0.31 | -0.966 ± 0.2
UGCCAGCAAUAUUACGGGGG | -3.83 ± 0.17 | -2.9 ± 0.17
GCGCAGCAAUAUUACGUAAA | 0.442 ± 0.089 | 0.263 ± 0.12
AGCGAGCAAUAUUACGAAGC | -3.45 ± 0.43 | -2.17 ± 0.25
AUAGAGCAAUAUUACGGACG | -2.69 ± 0.22 | -0.981 ± 0.19
GUCGAGCAAUAUUACGAAAA | – | -2.58 ± 0.41
GCCAAGCAAUAUUACGCAAC | -1.98 ± 0.13 | -1.32 ± 0.16
UUAUAGCAAUAUUACGCUUA | -1.92 ± 0.33 | -1.09 ± 0.26
GUGUAGCAAUAUUACGUCCG | -3.16 ± 0.33 | -0.647 ± 0.22
